Reference: patent US20190367620A1 (Merck KGaA, published 2019)
Positions count from the first letter of the chain named.

Columns and labels:
[1] = target: T1, human FGFR1b-IIIc extracellular domain with a HIS tag (human, UniProt P11362 22-376); test: ELISA, antibody titrated on huFGFR1b-IIIc, O.D. 450 nm [panel huFGFR1b-IIIc]
T1 construct: also called huFGFR1b-IIIc; hFGFR1b-IIIc
T1 sequence: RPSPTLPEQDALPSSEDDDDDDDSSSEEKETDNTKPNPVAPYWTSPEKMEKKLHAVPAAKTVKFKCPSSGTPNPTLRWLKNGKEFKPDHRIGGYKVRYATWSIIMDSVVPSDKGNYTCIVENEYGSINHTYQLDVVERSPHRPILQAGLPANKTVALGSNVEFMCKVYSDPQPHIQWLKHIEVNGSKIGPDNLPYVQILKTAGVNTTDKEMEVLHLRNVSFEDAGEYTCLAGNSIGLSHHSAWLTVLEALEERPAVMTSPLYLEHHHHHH

[2] = target: T2, FGFR1 D2 point mutant A59G (human, UniProt P11362 22-254); test: SPR; free energy change relative to wild-type D2
T2 chain: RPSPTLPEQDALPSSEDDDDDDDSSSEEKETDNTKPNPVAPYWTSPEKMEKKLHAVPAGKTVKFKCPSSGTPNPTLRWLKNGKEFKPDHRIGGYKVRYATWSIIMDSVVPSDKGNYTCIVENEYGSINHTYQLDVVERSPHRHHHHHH
Procedure, shortened: (§1)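 Point mutants of FGFR1 D2, expressed in HEK cells, were tested by SPR against mAb #A08 captured via anti-human Fc to ~200 RU, in HBS-EP+ at 25° C. KD came from a 1:1 Langmuir fit (koff/kon), and ΔΔG was derived from the ratio of wild-type to mutant KD.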

[3] = target: T3, FGFR1 D2 point mutant E50A (human, UniProt P11362 22-254); test: SPR; free energy change relative to wild-type D2
T3 chain: T2 chain with E50A, G59A
Procedure, shortened: as §1

[4] = target: T4, FGFR1 D2 point mutant E47A (human, UniProt P11362 22-254); test: SPR; free energy change relative to wild-type D2
T4 chain: T2 chain with E47A, G59A
Procedure, shortened: as §1

Human FGFR1 D2-His6 = target: T5, Human FGFR1 D2-His6 (human, UniProt P11362 22-254); test: SPR; free energy change relative to wild-type D2
T5 construct: also called D2 domain; F3FR1c-D2
T5 sequence: T2 chain with G59A
Procedure, shortened: as §1

[5] = target: T6, FGFR1 D2 point mutant D88A (human, UniProt P11362 22-254); test: SPR; free energy change relative to wild-type D2
T6 chain: T2 chain with G59A, D88A
Procedure, shortened: as §1

[6] = target: T7, FGFR1 D2 point mutant T100A (human, UniProt P11362 22-254); test: SPR; free energy change relative to wild-type D2
T7 chain: T2 chain with G59A, T100A
Procedure, shortened: as §1

- EC50 (read off the curve) [1]: ~0.03 nM
- ΔΔGmut [2]: 1.78 kcal/mol
- ΔΔGmut [3]: 0.02 kcal/mol
- ΔΔGmut [4]: 0.17 kcal/mol
- ΔΔGmut (Human FGFR1 D2-His6): 0 kcal/mol
- ΔΔGmut [5]: -0.1 kcal/mol
- ΔΔGmut [6]: 0.12 kcal/mol
B1: mAb #A08 (antibody, V domains shown)
VH: EVQLQESGPGLVKPSGTLSLTCAVSGGSISSNNWWSWVRQPPGKGLEWIGEIYHSGSTSYNPSLKSRVTISVDKSKNQFSLKLNSVTAADTAVYYCARGTDWFDPWGQGTLVTVSS
VL: QAVLTQPPSVSVAPGQTARITCGGNNIGSESVHWYQQKPGQAPVLVVYDDSDRPSGIPERFSGSNSGNTATLTISRVEAGDEADYYCQVWDSTSDHRVFGGGTKLTVL
notes: Only variable domains are tied to the name mAb #A08 (hit); also called #A08 hit; mAb #08
